The labels stand for the following.
B1: RUPA-58 (antibody, V domains shown)
VH: QVQLVQSGPEAKKPGASVKVSCQASGYPFSGYYMHWLRQAPGQGLEWMGWMNPNSGGTKYAQRFQGRVTMTRDTSISTAHMELRGLRSDDTAVYYCARDYCTGSSCYRTDYDYWGQGTLVTVSS
VL: DIQMTQSPSSLSASVGDRVTITCRASQIISTYLNWYQHKPGKAPKLLIKSASTLQSGVPSRFSGSGSGTDFTLTITSLQPEDFATFYCQQSYRDPITFGQGTRLEIK
notes: human IgG1; source: recombinant human IgG1, 293T (Protein A purified) or GenScript
B2: RUPA-71 (antibody, V domains shown)
VH: EEQLVESGGGLVKPGRSLRLSCSASGFTLGDYAVTWFRQASGKEPEWVGVIRTKDEGGTTEYAASVKGRFSILRDDSKSIAHLQMNSLKIEDTAVYYCTRNGLRWYDSSGPRGWAFDIWGPGTLVVVSS
VL: EIVMTQSPATVSVSPGERATLSCRTSQSVSNKLAWYQQKPGQAPRLLIYGASTRATGIPARFSGSGSGTQFTLTISSLQSEDFAVYYCQQYNNWPPWTFGRGTKVEIK
notes: as for B1
B3: RUPA-77 (antibody, V domains shown)
VH: QITLKESGPTLVKPTQTLTLTCSFSGFSLTTAGVAVAWIRQPPGQALEWLGIIYWNDDKRYNPSFQNRLTIAKDTSKNQVVLTMTNMDPVDTGTYYCAHRILAAYNYFDPWGQGTLVTVSS
VL: DIQMTQSPPSLSASVGDRVTITCRASQPINNFLNWYQQRPGKAPKLLIYAASRLQSGVPSRFSGSVSGTDFTLTISSLQQEDFAIYYCQQSYTSPLTFGGGTKVEIK
notes: as for B1
B4: RUPA-66 (antibody, V domains shown)
VH: QVQVQQWGAGLLKPSETLSLTCAAFGGSFSDYYWSWIRQPPGKGLEWIGEINHSGTTNYNPSLKSRVIISVDTSKNQFSLKLSSVTAADTALYYCARRSSGWYRRSRYTGWFDPWGQGTLVTVSS
VL: EILMTQSPATLSVSPGERATLSCRASQTITSNLAWYQQKPGQAPRLLMYGASTRATGIPARFSGSGSGTEFTLTISSLQSEDFGIYYCQQYNNWPGLSFGGGTKVEIK
notes: as for B1
B5: RUPA-75 (antibody, V domains shown)
VH: QVQLQQWGAGLLKPSETLSLTCGVNGGSFTDYYWTWIRQPPGKGLEWIGDINHSGITNYNPSLKSRLTLSVDTSKSHFSLRLNSVTAADTALYFCARRSSGYYRGSRYTGWLDPWGQGTLVTVSS
VL: B4 VL with L3V, R24W, T28S, M48I, E70G, S77T, L78V, G84A, I85V, S98T
notes: as for B1
B6: RUPA-78 (antibody, V domains shown)
VH: EGQLLESGGDLVQPGGSLRLSCAASRFTFNTFAMTWVRQAPGKGLEWVSTISRSGSSTFYADSVKGRFTISRDNSKDTLYLQMNSLRAEDTALYSCAKFRTPRFSSSSGDALDLWGQGTMVTVSS
VL: EIVLTQSPGTLSLSPGERATLSCRASQSVSSSYFAWYQRRPGQAPRLVIDGASSRATGIPDRFSGSGSGTDFTLTISRLEPEDFAVYYCQQYGVSPGTFGQGTKLEIK
notes: as for B1
B7: RUPA-165 (antibody, V domains shown)
VH: VQLQQWGAGLLKPSETLSLTCLVNGGSFSDYYWSWIRQPPGRGLEWIGDVNHSGTTNHRPSLQSRVTLSLDMSKNQFSLKLTSVTAADTAVYFCARRSSGYYRGSRYTGWLDPWGQGTLVTVSS
VL: IVMTQSPLSLSVSPGERATLSCRASQTITRNLAWYQQKPGQAPRLLIYGASTRAPDIPARFSASGSGTEFTLTISSLQSEDFALYYCQQYNNWPGLTFGGGTKVEIK
notes: as for B1

Where a chain is given by its changes, count along the chain named.

For one assay, the target named is T1, recombinant full-length Pfs48/45 (Plasmodium falciparum 3D7, UniProt Q8I6T1). As to the kind of experiment: ELISA. The settings on record: both partners purified. Background: In an ELISA, binding on a coated surface is turned into a signal by an enzyme label.
T1 sequence (Q8I6T1 28-428): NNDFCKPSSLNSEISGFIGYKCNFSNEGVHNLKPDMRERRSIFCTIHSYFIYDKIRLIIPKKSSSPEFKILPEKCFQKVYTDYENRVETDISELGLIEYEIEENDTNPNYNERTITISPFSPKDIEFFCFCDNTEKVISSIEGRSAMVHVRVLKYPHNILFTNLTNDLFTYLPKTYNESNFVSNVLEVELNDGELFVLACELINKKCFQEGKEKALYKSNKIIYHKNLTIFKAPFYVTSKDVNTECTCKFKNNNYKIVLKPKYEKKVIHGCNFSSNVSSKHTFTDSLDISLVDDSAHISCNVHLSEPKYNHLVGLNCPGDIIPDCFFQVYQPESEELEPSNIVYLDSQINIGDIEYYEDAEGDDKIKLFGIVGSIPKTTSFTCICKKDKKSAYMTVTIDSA
As for B1, the binding result is listed as “binds”.

Turning to B2, the binding result is given as “binds”.

With B3, the binding result is reported as “binds”.

Consider B4, for which the binding result is recorded as “binds”.

With B5, the binding result is listed as “binds”.

For the molecule B6, the binding result is recorded as “binds”.

The target of a further assay is T2, Pfs48/45 D1-2 (Plasmodium falciparum 3D7, UniProt Q8I6T1). As to the kind of experiment: ELISA. The settings on record: both partners purified.
T2 sequence (Q8I6T1 28-289): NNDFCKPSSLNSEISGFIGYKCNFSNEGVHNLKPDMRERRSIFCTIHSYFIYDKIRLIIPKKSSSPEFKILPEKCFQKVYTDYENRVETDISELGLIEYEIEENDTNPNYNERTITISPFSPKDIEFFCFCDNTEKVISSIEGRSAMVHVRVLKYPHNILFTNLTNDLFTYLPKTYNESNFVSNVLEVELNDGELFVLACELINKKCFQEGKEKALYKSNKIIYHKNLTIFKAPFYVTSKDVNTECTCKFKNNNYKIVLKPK
B1: the binding result was “binds”.

On to B2, for which the binding result is “binds”.

In the case of B3, the binding result is recorded as “binds”.

Consider B4, for which the binding result is listed as “binds”.

With B5, the binding result is “binds”.

B6: the binding result is listed as “binds”.

For the next assay, the target named is T1, recombinant full-length Pfs48/45. As to the kind of experiment: ELISA. Conditions: both partners purified. The source holds these as a separate data set.
For B7, the binding result is reported as “binds”.

Another assay deals with T2, Pfs48/45 D1-2. The assay is described as follows: ELISA. Conditions: both partners purified. This is another data set of the same source.
Turning to B7, the binding result is on record as “binds”.

The values above are taken from article PMC9942873 (Immunity, 2023).
